Assay [1] has as its target T1, B-cat-Halo (beta-catenin HaloTag fusion expressed in HEK293 cells) (UniProt P35222 1-781, HaloTag labelled with HaloTag NanoBRET 618 Ligand).
T1 sequence (looked up): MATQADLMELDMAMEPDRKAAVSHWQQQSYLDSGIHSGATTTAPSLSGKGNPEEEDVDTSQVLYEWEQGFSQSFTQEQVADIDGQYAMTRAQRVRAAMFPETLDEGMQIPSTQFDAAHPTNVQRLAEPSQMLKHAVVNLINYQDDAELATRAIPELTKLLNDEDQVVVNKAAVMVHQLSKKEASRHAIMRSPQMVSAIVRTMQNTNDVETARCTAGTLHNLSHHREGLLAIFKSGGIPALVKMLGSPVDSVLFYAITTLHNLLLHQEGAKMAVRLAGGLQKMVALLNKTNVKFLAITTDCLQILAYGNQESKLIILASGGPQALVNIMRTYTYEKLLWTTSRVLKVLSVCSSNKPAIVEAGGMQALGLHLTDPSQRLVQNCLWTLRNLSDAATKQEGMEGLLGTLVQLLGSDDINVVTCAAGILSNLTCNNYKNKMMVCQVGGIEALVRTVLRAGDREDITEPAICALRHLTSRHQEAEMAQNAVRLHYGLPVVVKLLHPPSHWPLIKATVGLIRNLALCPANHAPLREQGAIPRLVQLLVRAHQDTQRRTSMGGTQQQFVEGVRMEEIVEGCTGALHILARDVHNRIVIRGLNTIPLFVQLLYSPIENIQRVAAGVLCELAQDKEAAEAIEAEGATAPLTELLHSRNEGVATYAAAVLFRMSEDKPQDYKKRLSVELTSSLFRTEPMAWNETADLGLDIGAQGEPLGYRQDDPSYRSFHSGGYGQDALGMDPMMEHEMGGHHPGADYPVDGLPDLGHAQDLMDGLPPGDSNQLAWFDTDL
As to the kind of experiment: cell-based or functional assay.

Assay [2] concerns the target T2, B-cat-Halo (beta-catenin HaloTag NanoBRET construct expressed in HEK293 cells) (UniProt P35222 1-781).
T2 sequence (looked up): T1 sequence (looked up)
As to the kind of experiment: cell-based or functional assay.

The results in this text go back to patent US20240116985A1 (published 2024).

Starred links: 1 amine or outer side, 2 acyl side, 3 side chain; linkers in the order of their positions; H or OH if unused. Positions of bridges follow the written chain, without caps; N, C: chain ends. Non-standard residues stand in square brackets, D forms with d. Primed or numbered codes have the meaning given here. (Me2NPrPip)GlnR = (S)-2-amino-5-(4-(3-(dimethylamino)propyl)piperazin-1-yl)-5-oxopentanoic acid, CN(C)CCCN1CCN(C(=O)CC[C@H](N[*:1])C(=O)[*:2])CC1; PyrS2″ = (S)-3-amino-1-((pent-4-en-1-yloxy)carbonyl)pyrrolidine-3-carboxylic acid (stapling residue), C=CCCCOC(=O)N1CC[C@@](N[*:1])(C(=O)[*:2])C1; (RDMAPyr)GlnR = (S)-2-amino-5-((R)-3-(dimethylamino)pyrrolidin-1-yl)-5-oxopentanoic acid, CN(C)[C@@H]1CCN(C(=O)CC[C@H](N[*:1])C(=O)[*:2])C1; B5(4) = 2,2-bis(4-pentenyl)glycine = 2-amino-2-(pent-4-en-1-yl)hept-6-enoic acid (stitching residue), C=CCCCC(CCCC=C)(N[*:1])C(=O)[*:2]; (4PyPip)GlnR = (S)-2-amino-5-oxo-5-(4-(pyridin-4-yl)piperazin-1-yl)pentanoic acid, O=C(CC[C@H](N[*:1])C(=O)[*:2])N1CCN(c2ccncc2)CC1; (EtSSpy)GluE = (S)-2-amino-5-oxo-5-(2-(pyridin-2-yldisulfaneyl)ethoxy)pentanoic acid, O=C(CC[C@H](N[*:1])C(=O)[*:2])OCCSSc1ccccn1; TfeGA = (S)-2-amino-3-((carboxymethyl)(2,2,2-trifluoroethyl)amino)propanoic acid, O=C([C@H](CN(CC(=O)[*:3])CC(F)(F)F)N[*:1])[*:2]; (4Pippip)GlnR″ = (S)-5-([1,4'-bipiperidin]-1'-yl)-2-amino-5-oxopentanoic acid, O=C(CC[C@H](N[*:1])C(=O)[*:2])N1CCC(N2CCCCC2)CC1; PyrS2 = (S)-3-amino-1-((pent-4-en-1-yloxy)carbonyl)pyrrolidine-3-carboxylic acid, C=CCCCOC(=O)N1CC[C@@](N[*:1])(C(=O)[*:2])C1; B5(27) = 2-amino-2-(pent-4-en-1-yl)hept-6-enoic acid (two alkene side-chain arms), C=CCCCC(CCCC=C)(N[*:1])C(=O)[*:2]; B5(19) = 2-amino-2-(pent-4-en-1-yl)hept-6-enoic acid (bis(4-pentenyl)glycine), C=CCCCC(CCCC=C)(N[*:1])C(=O)[*:2]; MePpzAsn = (S)-2-amino-4-(4-methylpiperazin-1-yl)-4-oxobutanoic acid, CN1CCN(C(=O)C[C@H](N[*:1])C(=O)[*:2])CC1; F2PipNva = (S)-2-amino-5-(4,4-difluoropiperidin-1-yl)pentanoic acid, O=C([C@H](CCCN1CCC(F)(F)CC1)N[*:1])[*:2]; (Morph)GlnR = (S)-2-amino-5-morpholino-5-oxopentanoic acid, O=C(CC[C@H](N[*:1])C(=O)[*:2])N1CCOCC1; B5(3) = 2,2-bis(4-pentenyl)glycine (stitching residue), C=CCCCC(CCCC=C)(N[*:1])C(=O)[*:2]; GluSH = (S)-2-amino-5-mercapto-5-oxopentanoic acid, O=C(CC[C@H](N[*:1])C(=O)[*:2])S[*:3]; Bta = N[C@@H](Cc1csc2ccccc12)C(=O)O; αAllylPro = C=CC[C@@]1(C(=O)O)CCCN1; tBuAla = CC(C)(C)C[C@H](N)C(=O)O; 3Thi = N[C@@H](Cc1ccsc1)C(=O)O; hSer = N[C@@H](CCO)C(=O)O

Turning to Ac-[αAllylPro]D[tBuAla][B5(27)]DDAAFL[PyrS2][3Thi][Bta]T-NH2 (staple 1-4, 4-11) [I-1494], the “NanoBRET Abs IC50” value in assay [1] is 14.7 µM. For Ac-[αAllylPro]D[tBuAla][B5(4)]D[GluSH]AAFL[PyrS2″][3Thi][Bta]Q-NH2 (staple 1-4, 4-11; also: isomer composition, later eluting HPLC peak) [I-1949], in assay [2], the “NanoBRET Abs IC50” value turned out to be 28.5 µM. As to Ac-[αAllylPro]D[tBuAla][B5(27)]DDAAFL[PyrS2][3Thi][Bta]V-NH2 (staple 1-4, 4-11) [I-1495], the “NanoBRET Abs IC50” value in assay [1] stood at 23.9 µM. In the case of Ac-[αAllylPro]D[tBuAla][B5(19)]D[TfeGA]AAF[(4Pippip)GlnR″][PyrS2″][3Thi][Bta]Q-NH2 (staple 1-4, 4-11) [I-1940], the “NanoBRET Abs IC50” value in assay [2] turned out to be 15.4 µM.

For Ac-[αAllylPro]D[tBuAla][B5(19)]D[TfeGA]AAF[(Me2NPrPip)GlnR][PyrS2″][3Thi][Bta]Q-NH2 (staple 1-4, 4-11) [I-1936], the “NanoBRET Abs IC50” value in assay [2] is 15.7 µM. Turning to Ac-[αAllylPro]D[tBuAla][B5(27)]DDA[F2PipNva]FL[PyrS2][3Thi][Bta]Q-NH2 (staple 1-4, 4-11) [I-1502], the “NanoBRET Abs IC50” value in assay [1] was > 20 µM.

Ac-[αAllylPro]D[tBuAla][B5(19)]D[TfeGA]AAF[(RDMAPyr)GlnR][PyrS2″][3Thi][Bta]Q-NH2 (staple 1-4, 4-11) [I-1939]: the “NanoBRET Abs IC50” value in assay [2] is 20.7 µM. Turning to Ac-[αAllylPro]D[tBuAla][B5(19)]D[TfeGA]AAF[(4PyPip)GlnR][PyrS2″][3Thi][Bta]Q-NH2 (staple 1-4, 4-11) [I-1938], the “NanoBRET Abs IC50” value in assay [2] is 30 µM. Consider Ac-[αAllylPro]D[tBuAla][B5(27)]DDAAFL[PyrS2][3Thi][Bta][dQ]-NH2 (staple 1-4, 4-11) [I-1500], for which the “NanoBRET Abs IC50” value in assay [1] was determined as 4.7 µM. Consider Ac-[αAllylPro]D[tBuAla][B5(4)]D[(EtSSpy)GluE]AAFL[PyrS2″][3Thi][Bta]Q-NH2 (staple 1-4, 4-11) [I-1951], for which the “NanoBRET Abs IC50” value in assay [2] was > 20 µM. Regarding Ac-[αAllylPro]D[tBuAla][B5(3)]DDAAF[F2PipNva][PyrS2″][3Thi][Bta]Q-NH2 (staple 1-4, 4-11) [I-1486], the “NanoBRET Abs IC50” value in assay [1] turned out to be 17.9 µM. In the case of Ac-[αAllylPro]D[tBuAla][B5(27)]DDAAFL[PyrS2][3Thi][Bta]F-NH2 (staple 1-4, 4-11) [I-1496], the “NanoBRET Abs IC50” value in assay [1] was determined as 9.4 µM. Regarding Ac-[αAllylPro]D[tBuAla][B5(27)]DDAAFL[PyrS2][3Thi][Bta][hSer]-NH2 (staple 1-4, 4-11) [I-1499], the “NanoBRET Abs IC50” value in assay [1] was 6.4 µM. In the case of Ac-[αAllylPro]D[tBuAla][B5(4)]D[TfeGA]AAF[(Morph)GlnR][PyrS2″][3Thi][Bta]Q-NH2 (staple 1-4, 4-11) [I-1943], the “NanoBRET Abs IC50” value in assay [2] amounted to 3.8 µM. As to Ac-[αAllylPro]D[tBuAla][B5(3)]DDAAF[MePpzAsn][PyrS2″][3Thi][Bta]Q-NH2 (staple 1-4, 4-11) [I-1488], the “NanoBRET Abs IC50” value in assay [1] came to 30.3 µM. Take Ac-[αAllylPro]D[tBuAla][B5(27)]DDAAFL[PyrS2][3Thi][Bta]S-NH2 (staple 1-4, 4-11) [I-1493]: the “NanoBRET Abs IC50” value in assay [1] is 4.9 µM.
